Tests used:
G9a and GLP = molecular target: T1, G9a and GLP (Homo sapiens, UniProt Q96KQ7+Q9H9B1); test: Triple SILAC pull-down after UNC0638 treatment of 293T cells, DMSO/UNC0638 ratio of protein captured by 3×MBT; type: cell-based; set-up: cells were treated for 24 hours with UNC0638 at 2.5 μM or DMSO vehicle control; endogenous in cells; host or cells: HEK 293T; conditions: for Relative to UNC0638 UNC Heavy / Relative to UNC0638 UNC Light: SILAC ratio DMSO/UNC0638 of protein pulled down with 3xMBT; for Relative to UNC0638 UNC Heavy: UNC0638 in heavy SILAC media; for Relative to UNC0638 UNC Light: UNC0638 in light SILAC media; for Relative to UNC0638 Average: average of UNC Light and UNC Heavy experiments;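 for all read-outs here: mass spectrometry (Q-Exactive) SILAC quantitation, DMSO/UNC0638 ratio computed after subtracting 3×MBTD355N mutant pull-down background, only proteins with at least twofold 3×MBT over mutant signal considered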
T1 sequence (Q96KQ7 2-1210 limits assumed): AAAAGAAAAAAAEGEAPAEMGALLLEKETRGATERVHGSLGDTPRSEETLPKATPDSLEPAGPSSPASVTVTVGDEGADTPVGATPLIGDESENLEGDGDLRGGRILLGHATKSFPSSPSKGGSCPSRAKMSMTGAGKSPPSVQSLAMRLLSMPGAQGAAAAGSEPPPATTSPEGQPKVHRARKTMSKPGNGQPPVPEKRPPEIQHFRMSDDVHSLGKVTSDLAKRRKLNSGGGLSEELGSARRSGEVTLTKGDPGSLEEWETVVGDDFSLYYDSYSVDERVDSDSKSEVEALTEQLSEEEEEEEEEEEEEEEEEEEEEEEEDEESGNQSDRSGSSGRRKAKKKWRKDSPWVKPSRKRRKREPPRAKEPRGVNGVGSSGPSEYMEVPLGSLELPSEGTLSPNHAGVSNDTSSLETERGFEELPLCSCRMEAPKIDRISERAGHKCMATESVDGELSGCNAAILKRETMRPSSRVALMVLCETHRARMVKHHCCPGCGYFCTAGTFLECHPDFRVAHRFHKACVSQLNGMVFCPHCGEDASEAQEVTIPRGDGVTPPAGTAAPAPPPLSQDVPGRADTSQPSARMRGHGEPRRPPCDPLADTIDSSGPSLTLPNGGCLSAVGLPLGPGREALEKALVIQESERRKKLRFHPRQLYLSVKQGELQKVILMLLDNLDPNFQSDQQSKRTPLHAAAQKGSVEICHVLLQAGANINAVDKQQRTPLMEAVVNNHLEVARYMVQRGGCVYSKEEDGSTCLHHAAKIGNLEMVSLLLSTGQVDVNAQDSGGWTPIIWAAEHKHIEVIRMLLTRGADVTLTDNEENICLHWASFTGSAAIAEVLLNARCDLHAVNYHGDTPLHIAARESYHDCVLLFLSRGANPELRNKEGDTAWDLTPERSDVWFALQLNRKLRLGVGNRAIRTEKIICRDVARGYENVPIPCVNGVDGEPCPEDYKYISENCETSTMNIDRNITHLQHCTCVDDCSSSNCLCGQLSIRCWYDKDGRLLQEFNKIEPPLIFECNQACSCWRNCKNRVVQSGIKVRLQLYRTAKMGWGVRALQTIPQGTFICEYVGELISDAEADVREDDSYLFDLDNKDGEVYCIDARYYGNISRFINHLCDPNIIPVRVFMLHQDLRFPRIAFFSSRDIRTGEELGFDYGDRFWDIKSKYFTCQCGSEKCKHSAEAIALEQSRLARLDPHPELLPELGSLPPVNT
T1 sequence (Q9H9B1 2-1298 limits assumed): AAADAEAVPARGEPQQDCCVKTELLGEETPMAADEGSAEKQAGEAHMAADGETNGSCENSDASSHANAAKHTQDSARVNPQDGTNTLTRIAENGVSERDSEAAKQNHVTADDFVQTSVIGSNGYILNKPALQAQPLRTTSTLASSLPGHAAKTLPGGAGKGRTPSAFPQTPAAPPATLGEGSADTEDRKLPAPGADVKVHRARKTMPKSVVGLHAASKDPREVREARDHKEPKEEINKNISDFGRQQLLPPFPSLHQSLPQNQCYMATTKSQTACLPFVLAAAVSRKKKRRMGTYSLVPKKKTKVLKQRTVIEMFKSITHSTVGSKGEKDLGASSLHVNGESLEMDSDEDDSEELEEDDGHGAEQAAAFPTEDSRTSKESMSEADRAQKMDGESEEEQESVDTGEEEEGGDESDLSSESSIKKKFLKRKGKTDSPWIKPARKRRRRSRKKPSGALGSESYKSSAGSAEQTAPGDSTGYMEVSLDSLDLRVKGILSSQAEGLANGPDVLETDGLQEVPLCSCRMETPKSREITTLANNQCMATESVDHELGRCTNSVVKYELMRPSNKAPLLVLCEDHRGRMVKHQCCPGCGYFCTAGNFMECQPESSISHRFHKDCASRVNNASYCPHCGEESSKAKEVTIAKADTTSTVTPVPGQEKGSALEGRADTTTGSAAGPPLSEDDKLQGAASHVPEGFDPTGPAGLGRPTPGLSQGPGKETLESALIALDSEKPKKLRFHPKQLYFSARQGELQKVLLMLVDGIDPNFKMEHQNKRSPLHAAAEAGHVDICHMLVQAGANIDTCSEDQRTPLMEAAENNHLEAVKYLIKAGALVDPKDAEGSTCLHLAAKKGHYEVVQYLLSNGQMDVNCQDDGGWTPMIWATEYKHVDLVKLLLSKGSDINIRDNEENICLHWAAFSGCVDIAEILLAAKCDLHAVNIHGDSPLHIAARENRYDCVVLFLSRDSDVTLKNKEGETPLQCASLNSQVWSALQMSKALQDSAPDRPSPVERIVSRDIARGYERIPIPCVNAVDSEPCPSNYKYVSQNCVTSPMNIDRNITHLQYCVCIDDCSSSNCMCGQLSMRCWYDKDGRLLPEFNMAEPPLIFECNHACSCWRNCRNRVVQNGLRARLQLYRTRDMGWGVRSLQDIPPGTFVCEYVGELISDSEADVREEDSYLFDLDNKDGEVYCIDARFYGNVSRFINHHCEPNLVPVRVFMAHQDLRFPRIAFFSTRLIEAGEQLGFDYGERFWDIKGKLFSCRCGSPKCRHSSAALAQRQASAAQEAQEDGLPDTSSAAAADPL

3×MBT domain of L3MBTL1 = test: Triple SILAC pull-down, 3xMBT/3xMBTD355N ratio (cytoplasmic, nuclear and chromatin fractions of 293T cells); type: binding, human; conditions: SILAC ratio, pull-down 3xMBT vs 3xMBTD355N; for 3xMBT/D355N UNC Heavy: experiment with UNC0638 in heavy SILAC media; for 3xMBT/D355N UNC Light: experiment with UNC0638 in light SILAC media;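 for all read-outs here: proteins quantified with MaxQuant, requiring at least two unique peptides and quantification in both label directions, normalized to the mean of proteins from a digested loading control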

B1: NHP2L1: protein with methylated lysine identified in 3xMBT pull-down (protein, UniProt P55769 1-128, looked up)
NHP2-like protein 1: MTEADVNPKAYPLADAHLTKKLLDLVQQSCNYKQLRKGANEATKTLNRGISEFIVMAADAEPLEIILHLPLLCEDKNVPYVFVRSKQALGRACGVSRPVIACSVTIKEGSQLKQQIQSIQQSIERLLV
Relative to UNC0638 UNC Heavy (G9a and GLP): −0.86 log base 2 | Relative to UNC0638 UNC Light (G9a and GLP): 1.33 log base 2 | Relative to UNC0638 Average (G9a and GLP): 0.24 log base 2 | 3xMBT/D355N UNC Heavy (3×MBT domain of L3MBTL1): 1.56 log base 2 | 3xMBT/D355N UNC Light (3×MBT domain of L3MBTL1): 3.46 log base 2

B2: MCM4: protein with methylated lysine identified in 3xMBT pull-down (protein, UniProt P33991 2-863, looked up)
DNA replication licensing …: SSPASTPSRRGSRRGRATPAQTPRSEDARSSPSQRRRGEDSTSTGELQPMPTSPGVDLQSPAAQDVLFSSPPQMHSSAIPLDFDVSSPLTYGTPSSRVEGTPRSGVRGTPVRQRPDLGSAQKGLQVDLQSDGAAAEDIVASEQSLGQKLVIWGTDVNVAACKENFQRFLQRFIDPLAKEEENVGIDITEPLYMQRLGEINVIGEPFLNVNCEHIKSFDKNLYRQLISYPQEVIPTFDMAVNEIFFDRYPDSILEHQIQVRPFNALKTKNMRNLNPEDIDQLITISGMVIRTSQLIPEMQEAFFQCQVCAHTTRVEMDRGRIAEPSVCGRCHTTHSMALIHNRSLFSDKQMIKLQESPEDMPAGQTPHTVILFAHNDLVDKVQPGDRVNVTGIYRAVPIRVNPRVSNVKSVYKTHIDVIHYRKTDAKRLHGLDEEAEQKLFSEKRVELLKELSRKPDIYERLASALAPSIYEHEDIKKGILLQLFGGTRKDFSHTGRGKFRAEINILLCGDPGTSKSQLLQYVYNLVPRGQYTSGKGSSAVGLTAYVMKDPETRQLVLQTGALVLSDNGICCIDEFDKMNESTRSVLHEVMEQQTLSIAKAGIICQLNARTSVLAAANPIESQWNPKKTTIENIQLPHTLLSRFDLIFLLLDPQDEAYDRRLAHHLVALYYQSEEQAEEELLDMAVLKDYIAYAHSTIMPRLSEEASQALIEAYVDMRKIGSSRGMVSAYPRQLESLIRLAEAHAKVRLSNKVEAIDVEEAKRLHREALKQSATDPRTGIVDISILTTGMSATSRKRKEELAEALKKLILSKGKTPALKYQQLFEDIRGQSDIAITKDMFEEALRALADDDFLTVTGKTVRLL
modifications: methylated lysine
notes: protein with methylated lysine identified in 3xMBT pull-down
Relative to UNC0638 UNC Heavy (G9a and GLP): 0.24 log base 2 | Relative to UNC0638 UNC Light (G9a and GLP): 0.15 log base 2 | Relative to UNC0638 Average (G9a and GLP): 0.20 log base 2 | 3xMBT/D355N UNC Heavy (3×MBT domain of L3MBTL1): 1.92 log base 2 | 3xMBT/D355N UNC Light (3×MBT domain of L3MBTL1): 2.16 log base 2

B3: GTF2I: protein with methylated lysine identified in 3xMBT pull-down (protein, UniProt P78347 2-998, looked up)
General transcription factor …: AQVAMSTLPVEDEESSESRMVVTFLMSALESMCKELAKSKAEVACIAVYETDVFVVGTERGRAFVNTRKDFQKDFVKYCVEEEEKAAEMHKMKSTTQANRMSVDAVEIETLRKTVEDYFCFCYGKALGKSTVVPVPYEKMLRDQSAVVVQGLPEGVAFKHPENYDLATLKWILENKAGISFIIKRPFLEPKKHVGGRVMVTDADRSILSPGGSCGPIKVKTEPTEDSGISLEMAAVTVKEESEDPDYYQYNIQAGPSETDDVDEKQPLSKPLQGSHHSSEGNEGTEMEVPAEDSTQHVPSETSEDPEVEVTIEDDDYSPPSKRPKANELPQPPVPEPANAGKRKVREFNFEKWNARITDLRKQVEELFERKYAQAIKAKGPVTIPYPLFQSHVEDLYVEGLPEGIPFRRPSTYGIPRLERILLAKERIRFVIKKHELLNSTREDLQLDKPASGVKEEWYARITKLRKMVDQLFCKKFAEALGSTEAKAVPYQKFEAHPNDLYVEGLPENIPFRSPSWYGIPRLEKIIQVGNRIKFVIKRPELLTHSTTEVTQPRTNTPVKEDWNVRITKLRKQVEEIFNLKFAQALGLTEAVKVPYPVFESNPEFLYVEGLPEGIPFRSPTWFGIPRLERIVRGSNKIKFVVKKPELVISYLPPGMASKINTKALQSPKRPRSPGSNSKVPEIEVTVEGPNNNNPQTSAVRTPTQTNGSNVPFKPRGREFSFEAWNAKITDLKQKVENLFNEKCGEALGLKQAVKVPFALFESFPEDFYVEGLPEGVPFRRPSTFGIPRLEKILRNKAKIKFIIKKPEMFETAIKESTSSKSPPRKINSSPNVNTTASGVEDLNIIQVTIPDDDNERLSKVEKARQLREQVNDLFSRKFGEAIGMGFPVKVPYRKITINPGCVVVDGMPPGVSFKAPSYLEISSMRRILDSAEFIKFTVIRPFPGLVINNQLVDQSESEGPVIQESAEPSQLEVPATEEIKETDGSSQIKQEPDPTW
modifications: methylated lysine
notes: as for B2
Relative to UNC0638 UNC Heavy (G9a and GLP): 0.31 log base 2 | Relative to UNC0638 UNC Light (G9a and GLP): 0.00 log base 2 | Relative to UNC0638 Average (G9a and GLP): 0.16 log base 2 | 3xMBT/D355N UNC Heavy (3×MBT domain of L3MBTL1): 3.02 log base 2 | 3xMBT/D355N UNC Light (3×MBT domain of L3MBTL1): 2.75 log base 2
